Assay results as given in US20220380478A1 (TONIX PHARMA, published 2022).

Tests used:
FcγRIA (CD64) [1] = target: T1, FcγRIA (CD64) (UniProt P12314 16-292, limits assumed); assay: SPR (Biacore T200); mAb captured on Protein A, FcγRIA injected
T1 construct: also called FcgRIa; FcγR1A
Description: (§1) Specifically, FcγRIA was injected over anti-CD154 antibody pools immobilized onto a Protein A surface (2,000 Rus; Cat #Z02201 […] ®, Piscataway, N.J.), using PBST pH 7.4 (PBS with 0.05% Tween 20) as the running buffer. […] The regeneration was conducted with 1×60s 10 mM glycine pH 1.5, flow 30 μL/min.

CD16aF (FcγRIIIaF) [2] = target: T2, CD16aF (FcγRIIIaF) (UniProt P08637 17-208); assay: SPR (Biacore T200); mAb captured on Protein A, FcγR injected; steady-state affinity
Description: The analytes were antigens in the FcγR panel (CD16aF, CD16aV, CD32aH, CD32bF; National Research Council, Canada), which were resuspended in PBST containing 3.4 mM EDTA and 0.05% Tween20.

FcγRIA (CD64) [3] = target: T1, FcγRIA (CD64); assay: SPR (Biacore T200), FcγRIA binding; run with TNX06-TNX13
FcγRIA (CD64) [4] = target: T1, FcγRIA (CD64); assay: SPR (Biacore T200); mAb captured on Protein A, FcγRIA injected; run with TNX01-TNX05
Description: as §1

FcγRIA (CD64) [5] = target: T1, FcγRIA (CD64); assay: SPR (Biacore T200), FcγRIA binding
CD16aF (FcγRIIIaF) [6] = target: T2, CD16aF (FcγRIIIaF); assay: SPR (Biacore T200), low-affinity FcγR panel
CD16aV (FcγRIIIaV) = CD16aV (FcγRIIIaV) (UniProt P08637 17-208); assay: SPR (Biacore T200), low-affinity FcγR panel
Sequence of CD16aV (FcγRIIIaV) (P08637 17-208 F176V): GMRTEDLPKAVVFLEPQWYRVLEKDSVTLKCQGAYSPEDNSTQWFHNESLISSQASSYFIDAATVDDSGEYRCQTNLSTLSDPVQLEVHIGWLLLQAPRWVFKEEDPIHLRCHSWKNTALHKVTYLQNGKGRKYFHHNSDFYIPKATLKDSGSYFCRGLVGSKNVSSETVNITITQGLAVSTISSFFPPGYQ

CD32aH (FcγRIIaH) = target: T3, CD32aH (FcγRIIaH) (UniProt P12318 34-217); assay: SPR (Biacore T200), low-affinity FcγR panel
T3 sequence (looked up): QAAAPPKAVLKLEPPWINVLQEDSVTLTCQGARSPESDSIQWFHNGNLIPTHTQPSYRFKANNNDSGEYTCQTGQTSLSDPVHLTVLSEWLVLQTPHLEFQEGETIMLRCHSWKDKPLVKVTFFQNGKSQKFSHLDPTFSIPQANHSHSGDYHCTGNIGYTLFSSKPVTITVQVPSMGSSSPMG

FcγRIA (CD64) [7] = target: T1, FcγRIA (CD64); assay: SPR (Biacore T200); mAb captured on Protein A, FcγRIA injected; steady-state end-point analysis
Description: as §1

T2 sequence (P08637 17-208): as the sequence (P08637 17-208 F176V) above, with V160F counted along it
T1 sequence (P12314 16-292 limits assumed): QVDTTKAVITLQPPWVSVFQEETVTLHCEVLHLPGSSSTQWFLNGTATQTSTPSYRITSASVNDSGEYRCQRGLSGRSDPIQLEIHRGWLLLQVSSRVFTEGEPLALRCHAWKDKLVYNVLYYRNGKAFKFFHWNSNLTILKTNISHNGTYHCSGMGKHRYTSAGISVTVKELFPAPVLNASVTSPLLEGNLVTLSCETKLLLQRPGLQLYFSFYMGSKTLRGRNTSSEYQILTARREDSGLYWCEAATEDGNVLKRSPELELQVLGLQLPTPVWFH

B1: TNX05 anti-CD154 monoclonal antibody (antibody, human IgG4 S228P, kappa)
heavy: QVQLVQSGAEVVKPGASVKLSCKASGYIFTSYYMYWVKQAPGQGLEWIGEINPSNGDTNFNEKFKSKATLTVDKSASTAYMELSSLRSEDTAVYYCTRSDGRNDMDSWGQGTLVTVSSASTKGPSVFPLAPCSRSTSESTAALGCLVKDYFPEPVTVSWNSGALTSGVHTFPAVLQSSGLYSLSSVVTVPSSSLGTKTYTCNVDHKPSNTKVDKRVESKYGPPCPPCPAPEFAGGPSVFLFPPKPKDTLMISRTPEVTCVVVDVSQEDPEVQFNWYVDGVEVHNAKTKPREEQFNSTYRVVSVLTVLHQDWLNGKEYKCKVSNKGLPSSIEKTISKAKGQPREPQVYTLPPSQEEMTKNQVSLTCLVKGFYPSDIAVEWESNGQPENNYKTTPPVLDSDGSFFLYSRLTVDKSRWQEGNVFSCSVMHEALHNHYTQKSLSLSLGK
light: DIVLTQSPATLSVSPGERATISCRASQRVSSSTYSYMHWYQQKPGQPPKLLIKYASNLESGVPARFSGSGSGTDFTLTISSVEPEDFATYYCQHSWEIPPTFGGGTKLEIKRTVAAPSVFIFPPSDEQLKSGTASVVCLLNNFYPREAKVQWKVDNALQSGNSQESVTEQDSKDSTYSLSSTLTLSKADYEKHKVYACEVTHQGLSSPVTKSFNRGEC
notes: also called hu5c8 mutated-IgG4 (IgG4 S228P/L235A)
B1 was tested, and the “fold loss of activity (against TNX02)” value (FcγRIA (CD64) [1]) was 300 fold and the binding result (CD16aF (FcγRIIIaF) [2]) was “binds”.

B2: TNX02 anti-CD154 monoclonal antibody (antibody, human IgG1, kappa)
heavy: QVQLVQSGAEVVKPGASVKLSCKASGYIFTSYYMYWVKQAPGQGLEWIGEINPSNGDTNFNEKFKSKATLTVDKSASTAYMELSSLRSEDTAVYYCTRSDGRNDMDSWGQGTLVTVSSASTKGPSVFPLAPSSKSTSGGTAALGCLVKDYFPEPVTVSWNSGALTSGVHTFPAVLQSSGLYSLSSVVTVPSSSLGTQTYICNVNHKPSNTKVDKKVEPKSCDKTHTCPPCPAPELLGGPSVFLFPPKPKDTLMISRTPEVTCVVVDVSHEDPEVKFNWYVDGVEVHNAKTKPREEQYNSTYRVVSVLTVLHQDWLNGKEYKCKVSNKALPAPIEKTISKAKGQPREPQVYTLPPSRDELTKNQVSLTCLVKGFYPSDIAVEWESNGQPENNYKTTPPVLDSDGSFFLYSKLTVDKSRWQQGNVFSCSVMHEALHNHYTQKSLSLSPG
light: B1 light
notes: also called IgG1 (wildtype)
In the case of B2, the Kd (FcγRIA (CD64) [3]) is reported as roughly 0.04 nM, the binding result (CD16aF (FcγRIIIaF) [2]) is reported as “binds” and the Kd (FcγRIA (CD64) [4]) is reported as roughly 0.03 nM.

B3: TNX13 anti-CD154 monoclonal antibody (antibody, human IgG1, kappa)
heavy: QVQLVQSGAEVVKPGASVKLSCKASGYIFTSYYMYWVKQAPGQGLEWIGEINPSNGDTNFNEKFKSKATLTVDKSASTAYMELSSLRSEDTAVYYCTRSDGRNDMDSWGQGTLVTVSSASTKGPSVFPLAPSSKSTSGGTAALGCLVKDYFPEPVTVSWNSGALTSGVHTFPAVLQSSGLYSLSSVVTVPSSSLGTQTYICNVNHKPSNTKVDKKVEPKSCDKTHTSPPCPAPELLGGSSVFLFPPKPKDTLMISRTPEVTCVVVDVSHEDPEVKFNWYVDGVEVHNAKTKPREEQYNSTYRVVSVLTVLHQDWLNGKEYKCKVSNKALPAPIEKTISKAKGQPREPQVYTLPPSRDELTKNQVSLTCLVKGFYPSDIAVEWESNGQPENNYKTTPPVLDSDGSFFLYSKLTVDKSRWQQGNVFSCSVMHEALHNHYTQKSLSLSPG
light: B1 light
notes: also called IgG1 (C226S, P238S)
B3: binds (FcγRIA (CD64) [5]); no binding (CD16aF (FcγRIIIaF) [6]); no binding (CD16aV (FcγRIIIaV)). The “fold loss of binding activity (against TNX02)” value (CD32aH (FcγRIIaH)) was 17 fold.

B4: TNX03 anti-CD154 monoclonal antibody (antibody, human IgG1, kappa, N297G)
heavy: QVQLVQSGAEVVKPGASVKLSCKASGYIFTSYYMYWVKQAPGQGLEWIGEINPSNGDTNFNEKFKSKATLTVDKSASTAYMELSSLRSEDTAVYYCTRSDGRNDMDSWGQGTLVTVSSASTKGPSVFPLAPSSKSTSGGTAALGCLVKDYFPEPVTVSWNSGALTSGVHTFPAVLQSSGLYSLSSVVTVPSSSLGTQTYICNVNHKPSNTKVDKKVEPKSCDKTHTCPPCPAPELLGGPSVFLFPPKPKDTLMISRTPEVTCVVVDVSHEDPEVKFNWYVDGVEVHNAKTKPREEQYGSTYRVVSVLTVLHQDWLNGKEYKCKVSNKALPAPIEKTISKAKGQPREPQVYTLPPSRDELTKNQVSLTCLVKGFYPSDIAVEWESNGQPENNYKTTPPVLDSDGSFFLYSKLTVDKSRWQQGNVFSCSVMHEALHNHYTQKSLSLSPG
light: B1 light
notes: also called IgG1 (N297G)
With B4 the “fold loss of activity (against TNX02)” value (FcγRIA (CD64) [7]) was 3000 fold.

B5: TNX10 anti-CD154 monoclonal antibody (antibody, human IgG1, kappa, L234A L235A)
heavy: not shown
light: B1 light
notes: also called IgG1 (L234A, L235A)
For B5, the “fold weaker binding than TNX02” value (FcγRIA (CD64) [5]) was 1800 fold, the binding result (CD16aF (FcγRIIIaF) [6]) was “no binding” and the “fold loss (against TNX02)” value (CD16aV (FcγRIIIaV)) was roughly 12 fold. B5: no binding (CD32aH (FcγRIIaH)).

B6: TNX11 anti-CD154 monoclonal antibody (antibody, human IgG1, kappa)
heavy: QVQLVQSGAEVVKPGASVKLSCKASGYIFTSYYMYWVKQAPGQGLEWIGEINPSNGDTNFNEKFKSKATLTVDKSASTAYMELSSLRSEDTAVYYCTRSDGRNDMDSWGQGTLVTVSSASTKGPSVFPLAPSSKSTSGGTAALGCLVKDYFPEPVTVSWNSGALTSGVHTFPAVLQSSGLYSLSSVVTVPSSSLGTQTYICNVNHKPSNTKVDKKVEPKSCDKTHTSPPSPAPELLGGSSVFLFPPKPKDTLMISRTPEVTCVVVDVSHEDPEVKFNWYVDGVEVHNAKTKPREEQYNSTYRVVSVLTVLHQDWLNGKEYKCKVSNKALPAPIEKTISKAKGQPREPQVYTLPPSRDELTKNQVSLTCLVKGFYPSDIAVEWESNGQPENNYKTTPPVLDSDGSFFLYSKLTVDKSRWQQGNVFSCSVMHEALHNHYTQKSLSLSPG
light: B1 light
notes: also called IgG1 (C226S, C229S, P238S)
B6: binds (FcγRIA (CD64) [5]).

B7: TNX04 anti-CD154 monoclonal antibody (antibody)
heavy: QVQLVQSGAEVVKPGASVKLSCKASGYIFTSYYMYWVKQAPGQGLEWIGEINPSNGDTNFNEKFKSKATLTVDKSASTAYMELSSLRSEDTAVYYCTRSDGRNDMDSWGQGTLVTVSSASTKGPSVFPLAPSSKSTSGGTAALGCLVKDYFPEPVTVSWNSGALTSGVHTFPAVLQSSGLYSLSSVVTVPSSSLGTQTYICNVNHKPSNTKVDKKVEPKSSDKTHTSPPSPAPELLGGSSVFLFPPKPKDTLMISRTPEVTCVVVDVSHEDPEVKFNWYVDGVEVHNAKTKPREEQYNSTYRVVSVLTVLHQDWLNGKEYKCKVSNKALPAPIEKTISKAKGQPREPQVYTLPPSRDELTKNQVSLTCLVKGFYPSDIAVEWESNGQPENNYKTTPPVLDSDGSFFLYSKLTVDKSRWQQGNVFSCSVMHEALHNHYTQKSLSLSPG
light: B1 light
notes: also called IgG1 (C220S, C226S, C229S, P238S)
For B7, the “fold loss of activity (against TNX02)” value (FcγRIA (CD64) [1]) was 11 fold and the binding result (CD16aF (FcγRIIIaF) [2]) was “no binding (tested: 12 µM to 0.062 µM)”.

B8: TNX08 anti-CD154 monoclonal antibody (antibody, human IgG4 S228P, kappa)
heavy: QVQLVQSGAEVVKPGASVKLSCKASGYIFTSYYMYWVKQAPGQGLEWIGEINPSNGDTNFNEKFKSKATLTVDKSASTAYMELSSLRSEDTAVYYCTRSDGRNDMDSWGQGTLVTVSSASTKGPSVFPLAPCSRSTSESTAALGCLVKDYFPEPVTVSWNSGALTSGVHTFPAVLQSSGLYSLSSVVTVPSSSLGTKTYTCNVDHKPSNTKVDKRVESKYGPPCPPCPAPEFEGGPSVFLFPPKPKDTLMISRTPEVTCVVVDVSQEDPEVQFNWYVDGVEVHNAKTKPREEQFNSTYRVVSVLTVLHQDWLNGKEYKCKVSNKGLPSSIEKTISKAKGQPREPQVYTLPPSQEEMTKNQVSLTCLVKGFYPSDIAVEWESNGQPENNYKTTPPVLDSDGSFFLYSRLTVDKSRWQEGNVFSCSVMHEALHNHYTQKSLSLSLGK
light: B1 light
notes: also called IgG4 (S228P, L235E)
With B8 the “fold weaker binding than TNX02” value (FcγRIA (CD64) [5]) was 2600 fold and the binding result (CD16aF (FcγRIIIaF) [6]) was “binds”.

B9: TNX09 anti-CD154 monoclonal antibody (antibody, human IgG4 S228P, kappa, F234A L235A)
heavy: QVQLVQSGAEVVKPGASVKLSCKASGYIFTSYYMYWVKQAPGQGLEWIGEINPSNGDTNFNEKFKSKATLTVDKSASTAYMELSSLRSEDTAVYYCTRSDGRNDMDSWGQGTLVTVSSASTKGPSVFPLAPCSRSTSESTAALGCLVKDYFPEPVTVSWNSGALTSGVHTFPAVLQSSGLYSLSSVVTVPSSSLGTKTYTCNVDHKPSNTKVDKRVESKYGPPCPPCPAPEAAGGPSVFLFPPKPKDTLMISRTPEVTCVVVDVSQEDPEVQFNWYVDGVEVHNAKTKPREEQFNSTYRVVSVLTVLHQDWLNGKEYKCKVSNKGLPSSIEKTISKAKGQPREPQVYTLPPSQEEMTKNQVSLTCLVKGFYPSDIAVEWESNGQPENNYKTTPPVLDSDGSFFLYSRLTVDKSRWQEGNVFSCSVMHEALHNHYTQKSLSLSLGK
light: B1 light
notes: also called IgG4 (S228P, F234A, L235A)
For B9, the “fold weaker binding than TNX02” value (FcγRIA (CD64) [5]) was 3800 fold, the binding result (CD16aF (FcγRIIIaF) [6]) was “no binding” and the “fold loss (against TNX02)” value (CD16aV (FcγRIIIaV)) was roughly 12 fold. B9: no binding (CD32aH (FcγRIIaH)).

B10: TNX12 anti-CD154 monoclonal antibody (antibody, human IgG1, kappa)
heavy: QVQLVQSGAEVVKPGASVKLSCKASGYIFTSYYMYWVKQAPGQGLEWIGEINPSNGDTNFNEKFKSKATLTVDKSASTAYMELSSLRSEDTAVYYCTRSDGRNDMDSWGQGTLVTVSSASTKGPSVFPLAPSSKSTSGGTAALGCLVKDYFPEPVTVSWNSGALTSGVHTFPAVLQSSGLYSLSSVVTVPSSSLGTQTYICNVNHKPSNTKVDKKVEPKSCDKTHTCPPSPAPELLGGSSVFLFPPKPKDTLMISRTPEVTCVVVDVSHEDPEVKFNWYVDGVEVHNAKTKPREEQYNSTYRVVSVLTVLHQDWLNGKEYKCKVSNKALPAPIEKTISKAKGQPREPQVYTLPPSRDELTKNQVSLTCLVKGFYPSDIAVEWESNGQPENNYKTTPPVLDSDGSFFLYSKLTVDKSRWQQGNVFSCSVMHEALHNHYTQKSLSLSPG
light: B1 light
notes: also called IgG1 (C229S, P238S)
B10: binds (FcγRIA (CD64) [5]); no binding (CD16aF (FcγRIIIaF) [6]); no binding (CD16aV (FcγRIIIaV)). B10: no binding (CD32aH (FcγRIIaH)).

B11: TNX01 anti-CD154 monoclonal antibody (antibody, human IgG1, kappa, N297Q)
heavy: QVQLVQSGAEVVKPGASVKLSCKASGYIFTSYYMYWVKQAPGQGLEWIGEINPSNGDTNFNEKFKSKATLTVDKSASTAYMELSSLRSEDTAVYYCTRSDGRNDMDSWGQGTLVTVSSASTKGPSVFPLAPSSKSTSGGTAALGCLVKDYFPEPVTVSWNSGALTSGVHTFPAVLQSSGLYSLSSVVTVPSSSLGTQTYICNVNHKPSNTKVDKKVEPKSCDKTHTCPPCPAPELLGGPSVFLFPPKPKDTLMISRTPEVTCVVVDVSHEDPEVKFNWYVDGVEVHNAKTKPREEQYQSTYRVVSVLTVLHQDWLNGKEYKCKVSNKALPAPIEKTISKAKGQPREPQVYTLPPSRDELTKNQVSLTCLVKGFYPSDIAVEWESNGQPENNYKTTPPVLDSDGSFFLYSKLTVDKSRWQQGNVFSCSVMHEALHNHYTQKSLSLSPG
light: B1 light
notes: also called IgG1 (N297Q)
With B11 the “fold loss of activity (against TNX02)” value (FcγRIA (CD64) [7]) was 3000 fold.

B12: TNX06 anti-CD154 monoclonal antibody (antibody, human IgG4, kappa)
heavy: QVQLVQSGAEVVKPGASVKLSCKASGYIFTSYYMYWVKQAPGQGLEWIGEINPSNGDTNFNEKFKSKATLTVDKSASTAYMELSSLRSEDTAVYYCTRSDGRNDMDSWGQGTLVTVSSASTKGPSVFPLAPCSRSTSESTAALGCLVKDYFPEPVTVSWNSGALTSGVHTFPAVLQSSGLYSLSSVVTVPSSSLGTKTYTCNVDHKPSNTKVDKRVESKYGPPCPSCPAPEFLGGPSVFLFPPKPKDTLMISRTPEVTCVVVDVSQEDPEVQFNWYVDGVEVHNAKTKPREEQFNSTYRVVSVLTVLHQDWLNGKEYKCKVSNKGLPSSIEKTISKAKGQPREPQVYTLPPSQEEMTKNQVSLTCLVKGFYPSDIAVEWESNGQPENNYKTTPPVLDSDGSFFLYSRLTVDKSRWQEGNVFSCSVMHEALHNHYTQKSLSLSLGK
light: B1 light
notes: also called IgG4 Wild Type
B12: binds (FcγRIA (CD64) [5]); binds (CD16aF (FcγRIIIaF) [6]).
